Consider 22 molecules from patent US20200102347A1 (AUCTUS BIOLOGIES, published 2020).

Experiment [1] concerns the target T1, NativeRPtag small for immobilization (Thermoanaerobacter tengcongensis, C-terminal Cys (GGC) coupled to SulfoLink agarose resin).
T1 construct: also called immobilized RPtag (small)
T1 peptide: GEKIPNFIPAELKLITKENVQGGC
As to the kind of experiment: column binding; 25 mL of 1 µM tagRFP fusion applied to immobilized RPtag (small), washed with 10 mL TNE buffer, photographed.
Description: After purification of the tagged proteins, each was applied to its complementary column to evaluate binding. […] Briefly, columns were first equilibrated in 20 mM Tris pH 8.0, 150 mM NaCl, 1 mM EDTA (TNE buffer), then 25 mL of 1 μM tagged protein in TNE buffer was applied to the column at a flow rate of 1 ml/min, then washed with 10 mL of TNE buffer. Columns were cleaned with 10 mL 100 mM Glycine pH 1.5 between uses.
Briefly, columns were equilibrated in 20 mM Tris pH 8.0, 150 mM NaCl, 1 mM EDTA (TEN buffer), then 25 mL of 1 μM tagged protein in TEN buffer was applied to the column at a flow rate of 1 ml/min. Thereafter, the column was washed with 10 mL of TEN buffer, and the results recorded by photograph (FIG. 8). Columns were cleaned with 10 mL 100 mM Glycine pH 1.5 between uses.

The target of experiment [2] is T2, NativeRPtag(large)_with_Tags_and_Cys (Thermoanaerobacter tengcongensis).
T2 construct: Unlabeled in anisotropy assays; coupled through the engineered N-terminal Cys to SulfoLink agarose or maleimide plates in column, pull-down and ELISA assays
T2 chain: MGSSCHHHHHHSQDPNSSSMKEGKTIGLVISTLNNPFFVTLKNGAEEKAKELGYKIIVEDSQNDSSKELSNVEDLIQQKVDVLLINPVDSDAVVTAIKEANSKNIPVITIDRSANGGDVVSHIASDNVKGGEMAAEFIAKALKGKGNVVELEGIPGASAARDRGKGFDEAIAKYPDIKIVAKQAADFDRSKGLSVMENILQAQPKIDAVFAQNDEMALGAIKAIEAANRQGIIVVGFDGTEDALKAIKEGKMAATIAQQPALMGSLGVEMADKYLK
As to the kind of experiment: column binding; non-complementary tagRFP fusion applied to immobilized RPtag (large), washed, photographed.

Experiment [3] addresses T3, MaturePDGF-β_NterminalPeptide.
T3 construct: an N-terminal G was added and is left out of the numbering; also called PDGF-β peptide
T3 peptide: RhodamineB-GSLGSLTIAEPAMIAE
Description: fluorescence anisotropy; 20 nM rhodamine PDGF-β N-terminal peptide, unlabeled RPtag large variant titrated; bar of Ka = 1/Kd, left axis.
Description: (§1) After the incubation, fluorescence anisotropy was measured, and the resultant curves were fit with the equation f=y0+(ymax−y0)*(Ptot+x+Kd−sqrt((Ptot+x+Kd)\hat{ }2−4*Ptot*x))/(2*Ptot), where y0 is the baseline anisotropy, ymax is the maximum anisotropy, Ptot is the fixed concentration of labeled peptide used, x is the variable concentration of protein used, and Kd is the measured Kd. […] Buffer was 50 mM Tris pH 8.0, 0.005% Tween20.

For the next experiment, the target named is T4, native RPtag(small) (Thermoanaerobacter tengcongensis, N-terminal rhodamine).
T4 construct: Synthetic peptide
T4 peptide: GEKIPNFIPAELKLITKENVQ
As to the kind of experiment: fluorescence anisotropy; 1 nM rhodamine RPtag small peptide, unlabeled RPtag large titrated, 1 h; 50 mM Tris pH 8.0, 0.005% Tween20; bar of Ka = 1/Kd. Background: In fluorescence polarisation assays a small probe gives low polarisation when free and higher when bound to something large.

Another experiment deals with T5, RPtag(small) l14k (Thermoanaerobacter tengcongensis, N-terminal rhodamine).
T5 construct: also called L14K RPtag(small)
T5 peptide: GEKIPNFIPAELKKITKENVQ
The experiment is described as above.

The target in a further experiment is T6, RPtag(small) l14a (Thermoanaerobacter tengcongensis, N-terminal rhodamine).
T6 peptide: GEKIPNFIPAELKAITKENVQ
The description is as above.

In the next experiment the target is T7, RPtag(small) Nd2, Cd4 (Thermoanaerobacter tengcongensis).
T7 peptide: RhodamineB-KIPNFIPAELKLITK
Description: fluorescence anisotropy; 2 nM rhodamine Nd2Cd4, unlabeled RPtag large variant titrated; bar of Ka = 1/Kd, right axis.

Numbering of substitutions follows the chain as printed. Names and notes keep the numbering of the source. No end group written: not given here. *: point of attachment. RhodamineB = CCN(CC)c1ccc2c(-c3ccccc3C(=O)*)c3ccc(=[N+](CC)CC)cc-3oc2c1

Description for RPtag(small) Nd2, Cd4: as §1
Description for RPtag(small) l14a: (§2) Resultant curves were fit with the equation f=y0+(ymax−y0)*(Ptot+x+Kd−sqrt((Ptot+x+Kd)\hat{ }2−4*Ptot*x))/(2*Ptot), where y0 is the baseline anisotropy, ymax is the maximum anisotropy, Ptot is the fixed concentration of labeled peptide used, x is the variable concentration of protein used, and Kd is the measured Kd. […] Buffer was 50 mM Tris pH 8.0, 0.005% tween20.
Description for RPtag(small) l14k: as §2
Description for native RPtag(small): as §2

B1: Nterminally_tagged_NativeRPtag(large)_tagRFP (other)
chain: MGSSSQDPNSSSMKEGKTIGLVISTLNNPFFVTLKNGAEEKAKELGYKIIVEDSQNDSSKELSNVEDLIQQKVDVLLINPVDSDAVVTAIKEANSKNIPVITIDRSANGGDVVSHIASDNVKGGEMAAEFIAKALKGKGNVVELEGIPGASAARDRGKGFDEAIAKYPDIKIVAKQAADFDRSKGLSVMENILQAQPKIDAVFAQNDEMALGAIKAIEAANRQGIIVVGFDGTEDALKAIKEGKMAATIAQQPALMGSLGVEMADKYLKGSENLYFQGGSMVSKGEELIKENMHMKLYMEGTVNNHHFKCTSEGEGKPYEGTQTMRIKVVEGGPLPFAFDILATSFMYGSRTFINHTQGIPDFFKQSFPEGFTWERVTTYEDGGVLTATQDTSLQDGCLIYNVKIRGVNFPSNGPVMQKKTLGWEANTEMLYPADGGLEGRSDMALKLVGGGHLICNFKTTYRSKKPAKNLKMPGVYYVDHRLERIKEADKETYVEQHEVAVARYCDLPSKLGHKLNGSSGHHHHHHHH
notes: Fusion of RPtag(large), TEV site, tagRFP and 8XHis
Take B1: the binding result in experiment [1] was “binds”; in experiment [2], “no binding (tested: 1 µM (25 mL applied))”.

B2: Cterminally_tagged_NativeRPtag(large)_tagRFP (other)
chain: MGSSHHHHHHHHGSMVSKGEELIKENMHMKLYMEGTVNNHHFKCTSEGEGKPYEGTQTMRIKVVEGGPLPFAFDILATSFMYGSRTFINHTQGIPDFFKQSFPEGFTWERVTTYEDGGVLTATQDTSLQDGCLIYNVKIRGVNFPSNGPVMQKKTLGWEANTEMLYPADGGLEGRSDMALKLVGGGHLICNFKTTYRSKKPAKNLKMPGVYYVDHRLERIKEADKETYVEQHEVAVARYCDLPSKLGHKLNGSSGENLYFQGGSSQDPNSSSMKEGKTIGLVISTLNNPFFVTLKNGAEEKAKELGYKIIVEDSQNDSSKELSNVEDLIQQKVDVLLINPVDSDAVVTAIKEANSKNIPVITIDRSANGGDVVSHIASDNVKGGEMAAEFIAKALKGKGNVVELEGIPGASAARDRGKGFDEAIAKYPDIKIVAKQAADFDRSKGLSVMENILQAQPKIDAVFAQNDEMALGAIKAIEAANRQGIIVVGFDGTEDALKAIKEGKMAATIAQQPALMGSLGVEMADKYLK
notes: Fusion of 8XHis, tagRFP, TEV site and RPtag(large)
For the molecule B2, the binding result in experiment [1] is reported as “binds”; in experiment [2], “no binding (tested: 1 µM (25 mL applied))”.

B3: RPtag(large) f137d (designed binder)
chain: T2 chain with F137D
notes: also called F137D RPtag(large)
For B3, the binding result in experiment [3] was “binds”; with native RPtag(small), “binds”; in the experiment with RPtag(small) l14k, “binds”; with RPtag(small) l14a, “binds”; in the experiment with RPtag(small) Nd2, Cd4 it was “binds”.

B4: f137e (designed binder)
single chain: T2 chain with F137E
notes: single mutant of RPtag large; also called RPtag(large) F137E
Regarding B4, the binding result in experiment [3] is “binds”; with native RPtag(small), “binds”; with RPtag(small) l14k, “binds”; in the experiment with RPtag(small) l14a, “binds”; with RPtag(small) Nd2, Cd4 it was “binds”.

B5: k129f (designed binder)
single chain: T2 chain with K129F
notes: also called RPtag(large) K129F
For the molecule B5, the binding result is “binds” in experiment [3] and “binds” in the experiment with RPtag(small) Nd2, Cd4.

B6: h122l (designed binder)
single chain: T2 chain with H122L
notes: also called RPtag(large) H122L
B6: the binding result in experiment [3] was “binds”; with RPtag(small) Nd2, Cd4, “binds”.

B7: d126w (designed binder)
single chain: T2 chain with D126W
notes: also called RPtag(large) D126W
Regarding B7, the binding result in experiment [3] is on record as “binds”; with RPtag(small) Nd2, Cd4, “binds”.

B8: h122a (designed binder)
single chain: T2 chain with H122A
notes: also called RPtag(large) H122A
In the case of B8, the binding result in experiment [3] was “binds”; with RPtag(small) Nd2, Cd4, “binds”.

B9: g130a (designed binder)
single chain: T2 chain with G130A
notes: also called RPtag(large) G130A
Take B9: the binding result in experiment [3] is on record as “binds”; with RPtag(small) Nd2, Cd4 it was “binds”.

B10: f137t (designed binder)
single chain: T2 chain with F137T
notes: also called RPtag(large) F137T
As to B10, the binding result is “binds” in experiment [3] and “binds” with RPtag(small) Nd2, Cd4.

B11: k129a (designed binder)
single chain: T2 chain with K129A
notes: also called RPtag(large) K129A
As to B11, the binding result is on record as “binds” in experiment [3] and “binds” in the experiment with RPtag(small) Nd2, Cd4.

B12: k129y (designed binder)
single chain: T2 chain with K129Y
notes: also called RPtag(large) K129Y
For B12, the binding result in experiment [3] is listed as “binds”; in the experiment with RPtag(small) Nd2, Cd4, “binds”.

B13: m270e (designed binder)
single chain: T2 chain with M270E
notes: also called RPtag(large) M270E
Take B13: the binding result is given as “binds” in experiment [3] and “binds” in the experiment with RPtag(small) Nd2, Cd4.

B14: m270r (designed binder)
single chain: T2 chain with M270R
notes: also called RPtag(large) M270R
As for B14, the binding result in experiment [3] is reported as “binds”; with RPtag(small) Nd2, Cd4, “binds”.

B15: d126a (designed binder)
single chain: T2 chain with D126A
notes: also called RPtag(large) D126A
In the case of B15, the binding result in experiment [3] is reported as “binds”; in the experiment with RPtag(small) Nd2, Cd4 it was “binds”.

B16: m270k (designed binder)
single chain: T2 chain with M270K
notes: also called RPtag(large) M270K
As to B16, the binding result is on record as “binds” in experiment [3] and “binds” with RPtag(small) Nd2, Cd4.

B17: f137s (designed binder)
single chain: T2 chain with F137S
notes: also called RPtag(large) F137S
In the case of B17, the binding result in experiment [3] is “binds”; with RPtag(small) Nd2, Cd4, “binds”.

B18: g130v (designed binder)
single chain: T2 chain with G130V
notes: also called RPtag(large) G130V
Take B18: the binding result in experiment [3] was “binds”; in the experiment with RPtag(small) Nd2, Cd4, “binds”.

B19: h122f (designed binder)
single chain: T2 chain with H122F
notes: also called RPtag(large) H122F
For B19, the binding result is on record as “binds” in experiment [3] and “binds” in the experiment with RPtag(small) Nd2, Cd4.

B20: m270n (designed binder)
single chain: T2 chain with M270N
notes: also called RPtag(large) M270N
Consider B20, for which the binding result in experiment [3] is given as “binds”; with RPtag(small) Nd2, Cd4, “binds”.

B21: h122w (designed binder)
single chain: T2 chain with H122W
notes: also called RPtag(large) H122W
As to B21, the binding result in experiment [3] is listed as “binds”; with RPtag(small) Nd2, Cd4, “binds”.

B22: k129h (designed binder)
single chain: T2 chain with K129H
notes: also called RPtag(large) K129H
Turning to B22, the binding result in experiment [3] is given as “binds”; with RPtag(small) Nd2, Cd4, “binds”.
